Experimental findings from patent US20230011916A1 (BEIGENE, published 2023) are described below.

Residue numbers refer to the chain shown, from its start. Numbers in names are those of the source.

B1: 445-2 (antibody, V domains shown)
VH: QVQLVQSGAEVKKPGSSVKVSCKASGYKFTSYIIHWVRQAPGQGLEWMGYINPYNEGTRYAQKFQGRVTLTADKSTSTAYMELSSLRSEDTAVYYCARGYYGSSYAMDYWGQGTTVTVSS
VL: DIQMTQSPSSLSASVGDRVTITCSASQGISNYLNWYQQKPGKAIKLLIYDASTLYSGVPSRFSGSGSGTDFTLTISSLQPEDFATYYCQQYSKLPYTFGGGTKVEIK
B2: 445-1 (antibody, V domains shown)
VH: B1 VH with E56D, A61N, A72S
VL: B1 VL with A51T, F71Y
B3: ch445 (antibody, V domains shown)
VH: EVQLQQSGPELVKPGASVKMSCKASGYKFTSYIIHWVKQKPGQGLEWIGYINPYNDGTRYNEKFKGKATLTSDKSSSTAYMEYSSLTSEDSAVYYCARGYYGSSYAMDYWGQGTSVTVSS
VL: DIQMTQTTSSLSASLGDRVTISCSASQGISNYLNWYQQKPDGTIKLLIYDTSTLYSGVPSRFSGSGSGTDYFLTISNLEPEDIATYYCQQYSKLPYTFGGGTKLEKK
notes: also called Mu445 variable domains fused to human IgG1wt/kappa constant regions
B4: 445-3-3(G41D-K42G-S24R-K93R) (antibody, V domains shown)
VH: B1 VH with A61N
VL: B1 VL with S24R, G41D, K42G, K93R
B5: 445-3(Q62E)-3(S24R) (antibody, V domains shown)
VH: B1 VH with Q62E
VL: B1 VL with S24R
B6: 445-3(A61N-K63R)-3 (antibody, V domains shown)
VH: B1 VH with A61N, K63R
VL: B1 VL with S24R, G41D, K42G
B7: 445-3(T30S)-3(S24R) (antibody, V domains shown)
VH: B1 VH with T30S
VL: B1 VL with S24R
B8: 445-3(Q62E/Q65K)-3(S24R) (antibody, V domains shown)
VH: B1 VH with Q62E, Q65K
VL: B1 VL with S24R
B9: 445-3(A61N-K28R)-3 (antibody, V domains shown)
VH: B1 VH with K28R, A61N
VL: B1 VL with S24R, G41D, K42G
B10: 445-3 IgG4 (antibody, V domains shown)
VH: B1 VH with A61N
VL: B1 VL with S24R, G41D, K42G
B11: 445-1-2(S24G) (antibody, human IgG1, V domains shown)
VH: B1 VH with E56D, A61N, A72S
VL: B1 VL with S24G, A51T, F71Y
B12: 445-1-2(S10T/E81D/D70E) (antibody, human IgG1, V domains shown)
VH: B1 VH with E56D, A61N, A72S
VL: B1 VL with S10T, A51T, D70E, F71Y, E81D
B13: 445-2(M48I)-1 (antibody, human IgG1, V domains shown)
VH: B1 VH with M48I, E56D, A61N, A72S
VL: B1 VL with A51T, F71Y

The first assay deals with T1, full-length human OX40 expressed on HuT78 cells (HuT78/OX40) (human, UniProt P43489 29-277).
T1 sequence: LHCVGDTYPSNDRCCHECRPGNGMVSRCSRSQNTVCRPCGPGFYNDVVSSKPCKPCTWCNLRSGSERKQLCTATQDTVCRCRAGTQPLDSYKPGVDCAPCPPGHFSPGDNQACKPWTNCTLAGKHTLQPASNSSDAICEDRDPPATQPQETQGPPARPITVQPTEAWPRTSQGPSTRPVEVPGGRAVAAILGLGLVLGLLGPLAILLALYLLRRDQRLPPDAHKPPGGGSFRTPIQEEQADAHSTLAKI
In words: flow cytometry on live HuT78/OX40 cells; Test 2. How it is done:
(§1) To evaluate the binding activity of anti-OX40 antibodies to bind OX40 expressed on the surface of live cells, HuT78 cells were transfected with human OX40 as described in Example 1 to create an OX40 expressing line. Live HuT78/OX40 cells were seeded in 96-well plate and were incubated with a serial dilution of various anti-OX40 antibodies. Goat anti-Human IgG-FITC (Cat: A0556, Beyotime) was used as a secondary antibody to detect antibody binding to the cell surface. EC₅₀ values for dose-dependent binding to human OX40 were determined by fitting the dose-response data to the four-parameter logistic model with GraphPad Prism.
Background: Flow cytometry measures light scatter and fluorescence of single cells or particles in a stream.
One may read the EC50 as the concentration needed to bring the measured effect to its halfway point. A low value points to higher potency in that assay. For the molecule B1, the EC50 amounted to 0.363 µg/mL.
On the same count and under the same terms, then B2, with 0.278 µg/mL.
In turn, B3 yielded an EC50 of 0.277 µg/mL.

A further assay has as its target T2, recombinant OX40 protein with a His tag (Cat: 10481-H08H, Sino Biological) (UniProt P43489 29-216).
T2 construct: Bought protein; also called OX40-His (bought); not shown: His tag
T2 sequence (looked up): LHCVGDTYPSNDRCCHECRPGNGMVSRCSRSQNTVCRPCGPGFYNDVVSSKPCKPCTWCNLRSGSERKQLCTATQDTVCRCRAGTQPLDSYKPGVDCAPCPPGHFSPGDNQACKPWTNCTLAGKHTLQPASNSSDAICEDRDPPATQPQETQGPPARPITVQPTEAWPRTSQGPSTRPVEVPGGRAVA
In words: SPR, BIAcore T-200; antibody captured by anti-human IgG, OX40-His flowed; Test 2. An excerpt:
(§2) The anti-OX40 antibodies were characterized for their binding kinetics and affinity by SPR assays using BIAcore™ T-200 (GE Life Sciences). Briefly, anti-human IgG antibody was immobilized on an activated CM5 biosensorchip (Cat: BR100530, GE Life Sciences). An antibody with human IgG Fc region was flowed over the chip surface and captured by anti-human IgG antibody. Then a serial dilution of recombinant OX40 protein with a His tag (Cat: 10481-H08H, Sino Biological) was flowed over the chip surface and changes in surface plasmon resonance signals were analyzed to calculate the association rates (ka) and dissociation rates (kd) by using the one-to-one Langmuir binding model (BIA Evaluation Software, GE Life Sciences). The equilibrium dissociation constant (KD) was calculated as the ratio kd/ka.
Background: SPR reads the build-up and loss of mass on a sensor chip optically.
The Kd is the free concentration of one partner at which half of the binding sites on the other are occupied at equilibrium, for simple one-to-one binding. What is called koff is the first-order rate constant of dissociation. What is called kon is a measure of how fast the partners come together. Regarding B1, the Ka turned out to be 7.8e+07 M⁻¹, the Kd amounted to 12.8 nM, the koff is 0.00264 s⁻¹ and the kon turned out to be 206000 M⁻¹ s⁻¹.
Regarding B2, the Ka was found to be 6.1e+07 M⁻¹, the equilibrium dissociation constant (Kd) was 16.4 nM, the koff worked out at 0.00389 s⁻¹ and the kon turned out to be 237000 M⁻¹ s⁻¹.
In the case of B3, the Ka was 1.59e+08 M⁻¹, the Kd was found to be 6.3 nM, the koff amounted to 0.00167 s⁻¹ and the on-rate constant (kon) amounted to 265000 M⁻¹ s⁻¹.

A further assay concerns the target T1, full-length human OX40 expressed on …. Nature of the assay: FACS; cells not named on the sheet, HuT78/OX40 cells as in Example 5.
On to B1, for which the EC50 is 0.397 µg/mL and the “Top(MFI)” value worked out at 760 MFI.
For B4, in that order: 0.337 µg/mL and 1050 MFI.
For B5, in that order: 0.363 µg/mL and 760 MFI.
For B6, in that order: 0.483 µg/mL and 1100 MFI.
In the case of B7, the EC50 was found to be 0.405 µg/mL and the “Top(MFI)” value was determined as 800 MFI.
For B8, in that order: 0.318 µg/mL and 790 MFI.
Taken in the same sequence, the figures for B9 were 0.369 µg/mL and 1080 MFI.

The target is the same in another assay. Nature of the assay: flow cytometry on live HuT78/OX40 cells; Test 1. How it is done:
as §1
As for B1, the EC50 was 0.323 µg/mL.
On the same count and under the same terms, then B2, with 0.293 µg/mL; and B10, with 0.263 µg/mL.
As to B3, a half-maximal response (EC50) required 0.321 µg/mL.

In another assay the target is T2, recombinant OX40 protein with a His tag …. In words: SPR, BIAcore T-200; antibody captured by anti-human IgG, OX40-His flowed; Mean.
From the text: as §2
Turning to B1, the Ka was 7.5e+07 M⁻¹ and the Kd is 13.5 nM.
Taken in the same sequence, the figures for B2 were 5.9e+07 M⁻¹ and 17.1 nM.
For B10, in that order: 1e+08 M⁻¹ and 10 nM.
Taken in the same sequence, the figures for B3 were 1.41e+08 M⁻¹ and 7.28 nM.

The target is the same in a further assay. In words: Biacore (SPR); antigen not named on the sheet, OX40-His as in Example 4.
In the case of B4, the Kd is 7.9 nM, the koff worked out at 0.00168 s⁻¹ and the kon stood at 212000 M⁻¹ s⁻¹.
Taken in the same sequence, the figures for B5 were 11.7 nM, 0.00227 s⁻¹ and 194000 M⁻¹ s⁻¹.
In the case of B6, the Kd was determined as 9.65 nM, the koff was determined as 0.00155 s⁻¹ and the kon came to 161000 M⁻¹ s⁻¹.
As for B7, the Kd turned out to be 13.1 nM, the koff came out at 0.00381 s⁻¹ and the kon stood at 291000 M⁻¹ s⁻¹.
For the molecule B8, the Kd is 12.4 nM, the koff turned out to be 0.00232 s⁻¹ and the kon came out at 187000 M⁻¹ s⁻¹.
Taken in the same sequence, the figures for B9 were 7.35 nM, 0.00115 s⁻¹ and 157000 M⁻¹ s⁻¹.

Another assay has the same target. Described as above. This is another data set of the same source.
On to B11, for which the Kd worked out at 16.2 nM, the koff was determined as 0.0036 s⁻¹ and the kon was 222000 M⁻¹ s⁻¹.
As to B12, the Kd is 14.9 nM, the koff was determined as 0.0034 s⁻¹ and the kon was determined as 228000 M⁻¹ s⁻¹.
Taken in the same sequence, the figures for B13 were 15.5 nM, 0.00356 s⁻¹ and 230000 M⁻¹ s⁻¹.

A further assay deals with T1, full-length human OX40 expressed on …. In words: flow cytometry on live HuT78/OX40 cells; Mean. Here is the method:
as §1
Regarding B1, the EC50 is 0.343 µg/mL and the “Top(MFI)” value came to 620 MFI.
Taken in the same sequence, the figures for B2 were 0.285 µg/mL and 525 MFI.
For B10, in that order: 0.263 µg/mL and 892 MFI.
Taken in the same sequence, the figures for B3 were 0.299 µg/mL and 725 MFI.

The target of the next assay is T2, recombinant OX40 protein with a His tag …. Nature of the assay: SPR, BIAcore T-200; antibody captured by anti-human IgG, OX40-His flowed; Test 1.
From the text: as §2
B1: the Ka came out at 7.1e+07 M⁻¹, the Kd turned out to be 14.2 nM, the koff is 0.0039 s⁻¹ and the kon was determined as 276000 M⁻¹ s⁻¹.
B2: the Ka worked out at 5.6e+07 M⁻¹, the Kd was 17.8 nM, the koff came out at 0.00277 s⁻¹ and the kon is 156000 M⁻¹ s⁻¹.
With B10, the Ka was found to be 1e+08 M⁻¹ and the Kd was 10 nM.
With B3, the Ka came to 1.22e+08 M⁻¹, the Kd was determined as 8.26 nM, the koff was 0.00143 s⁻¹ and the kon was determined as 174000 M⁻¹ s⁻¹.

The next assay addresses T1, full-length human OX40 expressed on …. Nature of the assay: FACS; cells not named on the sheet, HuT78/OX40 cells as in Example 5. The source holds these as a separate data set.
Turning to B2, the EC50 worked out at 0.336 µg/mL and the “Top(MFI)” value is 500 MFI.
Taken in the same sequence, the figures for B11 were 0.307 µg/mL and 470 MFI.
With B12, the response was half-maximal at 0.28 µg/mL (EC50) and the “Top(MFI)” value was found to be 510 MFI.
Taken in the same sequence, the figures for B13 were 0.353 µg/mL and 480 MFI.
